According to patent US20090042805A1:

Molecular target: other caspases
Test: cell-based or functional assay

Q: Which inhibition of the cleavage of AMC substrates by human recombinant caspases (cross-reaction) does the source give for Ac-VDVAD-aldehyde [Ac-VDVAD-cho] here?
A: The inhibition of the cleavage of AMC substrates by human recombinant caspases (cross-reaction) was under 20%.
